Experiment [1] has as its target Y1 scFv (human single-chain Fv antibody fragment Y1). The experiment is described as follows: competition ELISA on glycocalicin; peptide 0.5μM. Background: An ELISA detects its analyte on a solid surface through an enzyme-linked reagent.
Experiment [2] shares this target. Kind of experiment: competition FACS on washed platelets; peptide 200μM.
For experiment [3] the target is unchanged. Kind of experiment: competition ELISA on glycocalicin; peptide 200μM.
The target is the same in experiment [4]. The experiment is described as follows: competition ELISA on glycocalicin; peptide 2.5μM.
For experiment [5] the target is unchanged. The experiment is described as follows: competition ELISA on glycocalicin; peptide 25μM.
The target is the same in experiment [6]. Kind of experiment: competition FACS on washed platelets; peptide 2.5μM.
For experiment [7] the target is unchanged. Kind of experiment: competition ELISA on glycocalicin, peptide taken as 25μM.
For experiment [8] the target is unchanged. The experiment is described as follows: competition ELISA on glycocalicin, peptide taken as 2.5μM.
Experiment [9] has the same target. Kind of experiment: competition ELISA on glycocalicin; first of three values, peptide taken as 200μM.
Experiment [10] has the same target. Kind of experiment: competition ELISA, Y1 scFv on glycocalicin.
The target of experiment [11] is human platelet glycoprotein Ibα (GPIbα) on platelets or in platelet lysates (human) (UniProt P07359). Kind of experiment: FACS on washed platelets, control without peptide.
For experiment [12] the target is unchanged. Kind of experiment: cell-based or functional assay.
In experiment [13] the target is glycocalicin purified from human platelets (soluble extracellular fragment of GPIbα) (human) (UniProt P07359). Kind of experiment: ELISA on glycocalicin.
Experiment [14] concerns the target Y1 scFv (human single-chain Fv antibody fragment Y1). The experiment is described as follows: competition ELISA on glycocalicin; peptide 0.5μM. The following applies: remark: other sources report otherwise.
For experiment [15] the target is unchanged. Kind of experiment: competition FACS on washed platelets; peptide 2.5μM. The following applies: remark: other sources report otherwise.
Experiment [16] has the same target. The experiment is described as follows: competition ELISA on glycocalicin; peptide 25μM. The following applies: remark: other sources report otherwise.
Experiment [17] has the same target. Kind of experiment: competition FACS on washed platelets; peptide 200μM. The following applies: remark: other sources report otherwise.
Experiment [18] shares this target. The experiment is described as follows: competition ELISA on glycocalicin; peptide 200μM. The following applies: remark: other sources report otherwise.
Experiment [19] has the same target. The experiment is described as follows: competition ELISA on glycocalicin; peptide 2.5μM. The following applies: remark: other sources report otherwise.

Where no end group is shown, it is not given here. [ ]: non-standard residue; d: D form. sY = N[C@@H](Cc1ccc(OS(=O)(=O)O)cc1)C(=O)O

On to REEGRQHFFLLEGRSSYS [EGR negative control peptide], for which the residual binding of Y1 (% of baseline) in [1] amounted to 121%; in experiment [3], 85%; in [4], 100%; in [5], 89%. In addition, the residual binding of Y1 (% of baseline, Geo mean) in experiment [2] came to 119%; in [6], 96%.
With GDEGDTDL[sY]D[sY][sY]PEEDTE [P-1-S, sulfated synthetic peptide of GPIbα residues 268-285], the residual binding of Y1 (% of baseline) in [1] turned out to be 89%; in [3] it was 0%; in [4] it was 62%; in experiment [5] it was 25%. Moreover, the figures for the residual binding of Y1 (% of baseline, Geo mean) in experiment [2] and in experiment [6] were 5% and 41%, respectively.
For the molecule TDL[sY]D[sY][sY]PEEDTE [P-2-S, sulfated synthetic peptide of GPIbα residues 273-285], the residual binding of Y1 (% of baseline, Geo mean) in [2] was determined as 7%; in [6] it was 61%. In addition, the residual binding of Y1 (% of baseline) came out at 52% in experiment [7], 78% in experiment [8] and 15% in [9].
In experiment [10], QATEYEYLD[sY]DFLPETE [P-YYY*, PSGL-1 N-terminal peptide sulfated on the third tyrosine] came in with a peptide concentration at which Y1 binding is effectively inhibited of 1 µM.

B1: Y1 scFv (human single-chain Fv antibody fragment Y1) (scFv)
scFv: EVQLVESGGGVVRPGGSLRLSCAASGFTFDDYGMSWVRQAPGKGLEWVSGINWNGGSTGYADSVKGRFTISRDNAKNSLYLQMNSLRAEDTAVYYCARMRAPVIWGQGTLVTVSRGGGGSGGGGSGGGGSSELTQDPAVSVALGQTVRITCQGDSLRSYYASWYQQKPGQAPVLVIYGKNNRPSGIPDRFSGSSSGNTASLTITGAQAEDEADYYCNSRDSSGNHVVFGGGTKLTVLGAAAEQKLISEEDLNGAA
In [11], B1 showed a residual binding of Y1 (% of baseline, Geo mean) of 114%. Besides, in experiment [12], the 凝集作用%; washed platelets, ristocetin; Y1 scFv 12.5微克/毫升 was determined as 67%; the 凝集作用%; washed platelets, ristocetin; Y1 scFv 14微克/毫升 turned out to be 92%; the 凝集作用%; washed platelets, ristocetin; Y1 scFv 25微克/毫升 stood at 23%; the 抑制百分比%; platelet-rich plasma, ristocetin; Y1 scFv25微克/毫升 was found to be 13%. In experiment [12], this molecule showed a 抑制百分比%; ristocetin-induced agglutination of washed platelets; Y1 scFv 25微克/毫升 of 77%; a 抑制百分比%; ristocetin-induced aggregation in platelet-rich plasma; Y1 scFv50微克/毫升 of 80%; a 抑制百分比%; washed platelets, ristocetin; Y1 scFv 12.5微克/毫升 of 33%; a 抑制百分比%; washed platelets, ristocetin; Y1 scFv 14微克/毫升 of 8%. Besides, in [12], the 聚集作用%; platelet-rich plasma, ristocetin; Y1 scFv25微克/毫升 turned out to be 87% and the 聚集作用%; platelet-rich plasma, ristocetin; Y1 scFv50微克/毫升 turned out to be 20%.

B2: CONY1, Y1 scFv monomer in which the myc tag is deleted or replaced by Lys-Ala-Lys (KAK) (scFv)
scFv: EVQLVESGGGVVRPGGSLRLSCAASGFTFDDYGMSWVRQAPGKGLEWVSGINWNGGSTGYADSVKGRFTISRDNAKNSLYLQMNSLRAEDTAVYYCARMRAPVIWGQGTLVTVSRGGGGSGGGGSGGGGSSELTQDPAVSVALGQTVRITCQGDSLRSYYASWYQQKPGQAPVLVIYGKNNRPSGIPDRFSGSSSGNTASLTITGAQAEDEADYYCNSRDSSGNHVVFGGGTKLTVLG
With B2, in experiment [13], the concentration needed to reach 0.8 OD units is 12.8 微克/毫升.
As for QATE[sY]EYLDYDFLPETE [P-Y*YY, PSGL-1 N-terminal peptide sulfated on the first tyrosine], in experiment [10], the peptide concentration at which Y1 binding is effectively inhibited amounted to 100 µM.
With GDEGDTDLYDYYPEEDTE [P-1, non-sulfated synthetic peptide of GPIbα residues 268-285], the residual binding of Y1 (% of baseline) was found to be 88% in experiment [14], 71% in experiment [16], 61% in experiment [18] and 94% in experiment [19]. Further, the residual binding of Y1 (% of baseline, Geo mean) in [15] was found to be 106%; in experiment [17], 87%.
Turning to GDEGDTDL[sY]D[sY][sY]P [P-3-S, sulfated synthetic peptide of GPIbα residues 268-280], the values for the residual binding of Y1 (% of baseline, Geo mean) in experiment [2] and in experiment [6] were 26% and 82%, respectively. Further, the residual binding of Y1 (% of baseline) was determined as 67% in experiment [7], 80% in [8] and 21% in [9].

Source of the values: patent CN1649900A.
